Drawing on patent publication US20230296605A1, this text covers OD450, lowest concentration of PRRSV recognized and electric signal, fold over the negative control for one molecule.

Experiment [1] deals with PRRSV viral lysate (Porcine Reproductive and Respiratory Syndrome Virus). The experiment can be described thus: ELISA Test 2, coated lysate, antibody 1:4000; PBS control 0.118/0.121.
Experiment [2] concerns the target lysate of porcine pseudorabies virus. Nature of the experiment: ELISA Test 1, coated lysate, antibody 1:4000, Group 1; PBS control 0.080/0.089.
Experiment [3] concerns the target PRRSV viral lysate (Porcine Reproductive and Respiratory Syndrome Virus). The experiment can be described thus: ELISA, coated lysate, 1 ug antibody.
The target is the same in experiment [4]. Nature of the experiment: […], antibody immobilized; […].
The target of experiment [5] is lysate of porcine pseudorabies virus. The experiment can be described thus: ELISA Test 1, coated lysate, antibody 1:4000, Group 2; PBS control 0.054/0.052. A general note: An ELISA detects its analyte on a solid surface through an enzyme-linked reagent.
In experiment [6] the target is PRRSV viral lysate (Porcine Reproductive and Respiratory Syndrome Virus). The experiment can be described thus: ELISA Test 1, coated lysate, antibody 1:4000, Group 1; PBS control 0.073/0.072.
For experiment [7], the target named is lysate of porcine coronavirus. Nature of the experiment: ELISA Test 2, coated lysate, antibody 1:4000; PBS control 0.140/0.145.
Experiment [8] addresses PRRSV viral lysate (Porcine Reproductive and Respiratory Syndrome Virus). Nature of the experiment: ELISA Test 1, coated lysate, antibody 1:4000, Group 2; PBS control 0.058/0.060.
Experiment [9] has as its target lysate of porcine circovirus type 2. Nature of the experiment: ELISA Test 2, coated lysate, antibody 1:4000; PBS control 0.162/0.153.

B1: anti-PRRSV antibody 477 (antibody, V domains shown)
VH: QVHVKQSGAELAKPGASVKMSCKASGYTFTNYWMHWVKQRPGQGLEWIGYINPSTGYTEYNQKFKDKATLTADKSSSTASMQLSSLTSEDSAVYYCGRSTAYGKYGEAWFAYWGQGTLVTVSA
VL: DIVMTQSPASLAVSLGQRATISCRTSESVDSFGNSFMHWYQQKPGQPPKLLIYLASNLESGVPARFSGSGSRTDFTLTIDPVEADDAATYYCQQNNEDPYTFGGGTKLEIKR
On to B1, for which the OD450 in experiment [1] amounted to 0.66 OD450; in [2], 0.095 OD450; in [5], 0.08 OD450; in [6] it was 0.151 OD450; in experiment [7] it was 0.375 OD450; in experiment [8] it was 0.129 OD450. The molecule further showed an OD450 in [9] of 0.303 OD450. The lowest concentration of PRRSV recognized in [3] was < 0.78 ng. The molecule also registered an electric signal, fold over the negative control in experiment [4] of 3 times.
